T1: Il12rb1 (mouse, UniProt Q60837 20-738)
T1 construct: whole, on cells; Tie to CD5L:p40 rests on loss of staining and of effect in knockout cells; also called Ilrb1
T1 sequence (looked up): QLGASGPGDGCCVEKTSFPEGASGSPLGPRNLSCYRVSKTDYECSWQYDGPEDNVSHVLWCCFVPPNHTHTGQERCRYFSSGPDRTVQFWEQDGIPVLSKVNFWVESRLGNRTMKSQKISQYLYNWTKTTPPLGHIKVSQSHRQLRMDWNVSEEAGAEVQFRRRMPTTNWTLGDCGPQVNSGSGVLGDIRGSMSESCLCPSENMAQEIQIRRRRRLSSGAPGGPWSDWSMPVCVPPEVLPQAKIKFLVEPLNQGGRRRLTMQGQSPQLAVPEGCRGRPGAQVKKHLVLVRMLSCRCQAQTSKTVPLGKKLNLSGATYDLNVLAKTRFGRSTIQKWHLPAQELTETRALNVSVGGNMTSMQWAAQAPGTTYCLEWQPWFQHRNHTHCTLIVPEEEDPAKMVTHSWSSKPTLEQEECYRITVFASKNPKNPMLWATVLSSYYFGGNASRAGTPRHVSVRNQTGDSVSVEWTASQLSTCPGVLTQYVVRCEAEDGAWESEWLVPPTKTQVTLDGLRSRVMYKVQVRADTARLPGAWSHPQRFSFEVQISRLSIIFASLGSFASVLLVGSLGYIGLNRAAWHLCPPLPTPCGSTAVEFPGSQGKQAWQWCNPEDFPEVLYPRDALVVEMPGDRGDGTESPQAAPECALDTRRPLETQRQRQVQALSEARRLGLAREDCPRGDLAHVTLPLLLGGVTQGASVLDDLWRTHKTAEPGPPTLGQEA

B1: recombinant CD5L:p40 heterodimer (genetically linked mouse p40-linker-CD5L with His tag) (ligand)
chain: MWELEKDVYVVEVDWTPDAPGETVNLTCDTPEEDDITWTSDQRHGVIGSGKTLTITVKEFLDAGQYTCHKGGETLSHSHLLLHKKENGIWSTEILKNFKNKTFLKCEAPNYSGRFTCSWLVQRNMDLKFNIKSSSSSPDSRAVTCGMASLSAEKVTLDQRDYEKYSVSCQEDVTCPTAEETLPIELALEARQQNKYENYSTSFFIRDIIKPDPPKNLQMKPLKNSQVEVSWEYPDSWSTPHSYFSLKFFVRIQRKKEKMKETEEGCNQKGAFLVEKTSTEVQCKGGNVCVQAQDRYYNSSCSKWACVPCRVRSGGGSGGGSGGGSGGESPTKVQLVGGAHRCEGRVEVEHNGQWGTVCDDGWDRRDVAVVCRELNCGAVIQTPRGASYQPPASEQRVLIQGVDCNGTEDTLAQCELNYDVFDCSHEEDAGAQCENPDSDLLFIPEDVRLVDGPGHCQGRVEVLHQSQWSTVCKAGWNLQVSKVVCRQLGCGRALLTYGSCNKSTQGKGPIWMGKMSCSGQEANLRSCLLSRLENNCTHGEDTWMECEDPFELKLVGGDTPCSGRLEVLHKGSWGSVCDDNWGEKEDQVVCKQLGCGKSLHPSPKTRKIYGPGAGRIWLDDVNCSGKEQSLEFCRHRLWGYHDCTHKEDVEVICTDFDVTGHHHHHHHHGGQ
notes: also called mCD5L:p40; rCD5L:p40
B2: recombinant CD5L monomer with His tag (mCD5L construct) (ligand)
chain: ESPTKVQLVGGAHRCEGRVEVEHNGQWGTVCDDGWDRRDVAVVCRELNCGAVIQTPRGASYQPPASEQRVLIQGVDCNGTEDTLAQCELNYDVFDCSHEEDAGAQCENPDSDLLFIPEDVRLVDGPGHCQGRVEVLHQSQWSTVCKAGWNLQVSKVVCRQLGCGRALLTYGSCNKSTQGKGPIWMGKMSCSGQEANLRSCLLSRLENNCTHGEDTWMECEDPFELKLVGGDTPCSGRLEVLHKGSWGSVCDDNWGEKEDQVVCKQLGCGKSLHPSPKTRKIYGPGAGRIWLDDVNCSGKEQSLEFCRHRLWGYHDCTHKEDVEVICTDFDVTGHHHHHHH
notes: Made by Biolegend in 293E cells, purified on Ni Sepharose and Superdex S200 (monomer fraction); also called soluble CD5L; sCD5L

Columns and labels:
Il12rb1 = target: T1, Il12rb1; assay: flow cytometry, His-tagged CD5L:p40 and anti-His antibody on T cells of wildtype or Il12rb1KO mice (FIG. 56A)
Description: FIG. 56A-F—Recombinant CD5L:p40 can bind to Th17 cells directly and alters T cell signaling pathways and metabolism. A) recombinant CD5L:p40 (his-tagged) were used to stain pathogenic Th17 cells (IL-1b+IL-6+IL-23),Th1 cells (IL-12) or Th0 cells differentiated from naïve T cells isolated from wildtype or Il12rb1KO mice followed by anti-His antibodies and analysis by flow cytometry. B-D) As Stat3 and Stat4 regulate IL-17 responses, we analyzed pStat3 and pStat4 expression. B-C) CD5L:p40 suppresses pStat3. 28 nM recombinant CD5L:p40 were used to stimulate naïve T cells in the presence of 10 ug/ml of anti-CD3 antibodies (TCR) with or without other indicated cytokines (B) or to stimulate Th17p cells (C) and cells were harvested for phosphoflow preparation and analysis of pStat3 at the indicated time points. D) CD5L:p40 suppresses pStat4 but not pTyk2. Western blotting analysis of pStat4 and pTyk2 expression by Th17p cells (equal protein loaded per lane) differentiated from naïve T cells isolated from wildtype mice and subjected to stimulation by either control (C), CD5L monomer (L), CD5L homodimer (LL), CD5L:p40 (L4) or p40:p40 homodimer (44) for the indicated time. E) CD5L:p40 suppresses pRictorY, pS6 and p38. To study whether CD5L:p40 influence other signaling pathways, we analysed several other phospho-proteins as indicated. […]

[1] = target: the molecule itself; assay: purification of recombinant CD5L (FIG. 8A)

Binder | binding result (Il12rb1) | binding result [1]
B1 | binds | 
B2 |  | binds
